Measured values taken from paper PMC5611513, “Structure-Based Prototype Peptides Targeting the Pseudomonas aeruginosa Type VI Secretion System Effector as a Novel Antibacterial Strategy” (Frontiers in Cellular and Infection Microbiology, 2017).

Key:
Experiment in all cases: ITC
[1] = target: TplEi E219A (Pseudomonas aeruginosa) (UniProt Q9I3K3)
[2] = target: TplEi R266A (Pseudomonas aeruginosa) (UniProt Q9I3K3)
[3] = target: TplEi S215A (Pseudomonas aeruginosa) (UniProt Q9I3K3)
[4] = target: TplEi (Pseudomonas aeruginosa) (UniProt Q9I3K3)

Substance | Kd [1] | Kd [2] | Kd [3] | fold reduction in binding affinity against the wild-type peptide [4]
A peptides (“L” peptide, TplE 82-108 plus EQVEVDD) (from UniProt Q9I3K2 82-115) | 35.5 µM | 46.9 µM | 7.8 µM | 
“L” peptide W92A (from UniProt Q9I3K2 82-115) |  |  |  | 500 fold
